Data set [1] addresses T1, variant nuclease K35G combination (P14R, D32R, I61R, E311R, K35G).
T1 chain: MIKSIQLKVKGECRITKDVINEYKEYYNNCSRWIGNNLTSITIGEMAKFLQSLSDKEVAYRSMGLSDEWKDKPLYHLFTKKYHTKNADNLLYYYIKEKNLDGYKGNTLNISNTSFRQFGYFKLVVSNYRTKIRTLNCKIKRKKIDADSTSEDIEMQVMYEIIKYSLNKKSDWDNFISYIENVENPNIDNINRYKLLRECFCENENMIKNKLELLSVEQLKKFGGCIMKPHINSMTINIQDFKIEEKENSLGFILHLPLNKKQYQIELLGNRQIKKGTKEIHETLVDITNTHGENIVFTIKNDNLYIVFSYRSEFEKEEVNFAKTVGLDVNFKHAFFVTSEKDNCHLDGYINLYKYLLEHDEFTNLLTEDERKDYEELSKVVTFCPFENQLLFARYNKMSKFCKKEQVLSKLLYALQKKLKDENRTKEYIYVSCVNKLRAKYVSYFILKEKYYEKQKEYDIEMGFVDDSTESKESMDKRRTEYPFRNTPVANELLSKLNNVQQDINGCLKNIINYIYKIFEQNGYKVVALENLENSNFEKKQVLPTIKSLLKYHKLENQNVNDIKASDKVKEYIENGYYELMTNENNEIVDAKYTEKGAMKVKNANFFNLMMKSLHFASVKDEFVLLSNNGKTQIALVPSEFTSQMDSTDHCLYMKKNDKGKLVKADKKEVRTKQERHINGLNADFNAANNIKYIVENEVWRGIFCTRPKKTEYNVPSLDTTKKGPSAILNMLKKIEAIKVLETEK
Put plainly: cell_activity; PAM 5'-TTTG-3'. The note with it: tags: pcDNA3.1 expression. An outline of the steps:
(§1)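 HEK293T cells were lipofected with nuclease plasmid (pcDNA3.1 backbone) plus RNA guide plasmid, with guide omitted in negative controls. After ~72 h cells were lysed in QuickExtract and % indels were derived from NGS reads, averaged over two bioreplicates and two technical replicates.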

For data set [2], the target named is T2, variant nuclease D55G/E736G combination (P14R, D32R, I61R, E311R, D55G, E736G).
T2 chain: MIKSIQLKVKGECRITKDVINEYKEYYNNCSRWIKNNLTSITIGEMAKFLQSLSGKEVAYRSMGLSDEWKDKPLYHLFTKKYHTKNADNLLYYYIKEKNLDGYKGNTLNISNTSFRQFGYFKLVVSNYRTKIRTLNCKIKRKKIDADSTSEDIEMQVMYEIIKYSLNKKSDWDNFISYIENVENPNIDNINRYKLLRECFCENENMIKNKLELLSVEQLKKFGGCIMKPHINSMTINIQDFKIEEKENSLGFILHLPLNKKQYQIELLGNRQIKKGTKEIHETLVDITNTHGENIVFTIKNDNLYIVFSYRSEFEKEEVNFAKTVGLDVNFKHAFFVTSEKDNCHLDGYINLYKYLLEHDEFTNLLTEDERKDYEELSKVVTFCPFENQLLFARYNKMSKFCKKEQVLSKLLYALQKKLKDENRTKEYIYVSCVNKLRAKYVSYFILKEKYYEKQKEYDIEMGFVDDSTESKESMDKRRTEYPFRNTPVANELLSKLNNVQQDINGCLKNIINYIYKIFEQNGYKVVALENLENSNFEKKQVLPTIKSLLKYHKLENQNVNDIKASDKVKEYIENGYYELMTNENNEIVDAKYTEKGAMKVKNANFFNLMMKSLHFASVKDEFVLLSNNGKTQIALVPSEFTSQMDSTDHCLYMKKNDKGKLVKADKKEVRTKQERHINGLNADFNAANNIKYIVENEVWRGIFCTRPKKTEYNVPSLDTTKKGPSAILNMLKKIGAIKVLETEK
As to the kind of experiment: cell_activity; PAM 5'-TTTG-3'. The following applies: tags: pcDNA3.1 expression. An outline of the steps: as §1

B1: AAVS1 crRNA ; AAVS1 target (ssRNA ; dsDNA)
RNA: CUUGUUGUAUAUGUCCUUUUAUAGGUAUUAAACAACUGAGAAUGGUGCGUCCUAGG
DNA 1: TGAGAATGGTGCGTCCTAGG
DNA 2: CCTAGGACGCACCATTCTCA
Consider B1, for which the indel activity in data set [1] is 5.66 fold of WT; in data set [2], 5.76 fold of WT.

The record behind these values is patent US20240035010, “COMPOSITIONS COMPRISING A VARIANT POLYPEPTIDE AND USES THEREOF” (Arbor Biotechnologies, Inc., published 2024).
